From patent US20240392035A1 (DENALI THERAPEUTICS, published 2024)

B1: anti-HER2_DIV/DII_scFv_1 (bispecific antibody, human IgG1, kappa, L234A L235A)
heavy 1: EVQLVESGGGLVQPGGSLRLSCAASGFTFTDYTMDWVRQAPGKGLEWVADVNPNSGGSIYNQRFKGRFTLSVDRSKNTLYLQMNSLRAEDTAVYYCARNLGPSFYFDYWGQGTLVTVSSASTKGPSVFPLAPSSKSTSGGTAALGCLVKDYFPEPVTVSWNSGALTSGVHTFPAVLQSSGLYSLSSVVTVPSSSLGTQTYICNVNHKPSNTKVDKKVEPKSCDKTHTCPPCPAPEAAGGPSVFLFPPKPKDTLMISRTPEVTCVVVDVSHEDPEVKFNWYVDGVEVHNAKTKPREEQYNSTYRVVSVLTVLHQDWLNGKEYKCKVSNKALPAPIEKTISKAKGQPREPQVYTLPPSRDELTKNQVSLWCLVKGFYPSDIAVEWESYGTEWSNYKTTPPVLDSDGSFFLYSKLTVSKEEWQQGFVFSCSVMHEALHNHYTQKSLSLSPGK
heavy 2: not shown
light: not shown
B2: Bispecific Protein #9 (bispecific antibody, human IgG1, kappa, L234A L235A)
heavy 1: EVQLVESGGGLVQPGGSLRLSCAASGFTFTDYTMDWVRQAPGKGLEWVADVNPNSGGSIYNQRFKGRFTLSVDRSKNTLYLQMNSLRAEDTAVYYCARNLGPSFYFDYWGQGTLVTVSSASTKGPSVFPLAPSSKSTSGGTAALGCLVKDYFPEPVTVSWNSGALTSGVHTFPAVLQSSGLYSLSSVVTVPSSSLGTQTYICNVNHKPSNTKVDKKVEPKSCDKTHTCPPCPAPEAAGGPSVFLFPPKPKDTLMISRTPEVTCVVVDVSHEDPEVKFNWYVDGVEVHNAKTKPREEQYNSTYRVVSVLTVLHQDWLNGKEYKCKVSNKALPAPIEKTISKAKGQPREPQVYTLPPSRDELTKNQVSLWCLVKGFYPSDIAVEWESYGTEWSNYKTTPPVLDSDGSFFLYSKLTVSKEEWQQGFVFSCSVMHEALHNHYTQKSLSLSPGK
heavy 2: not shown
light: not shown
B3: Bispecific Protein #2 (bispecific antibody, human IgG1, kappa, L234A L235A)
heavy 1: EVQLVESGGGLVQPGGSLRLSCAASGFTFTDYTMDWVRQAPGKGLEWVADVNPNSGGSIYNQRFKGRFTLSVDRSKNTLYLQMNSLRAEDTAVYYCARNLGPSFYFDYWGQGTLVTVSSASTKGPSVFPLAPSSKSTSGGTAALGCLVKDYFPEPVTVSWNSGALTSGVHTFPAVLQSSGLYSLSSVVTVPSSSLGTQTYICNVNHKPSNTKVDKKVEPKSCDKTHTCPPCPAPEAAGGPSVFLFPPKPKDTLMISRTPEVTCVVVDVSHEDPEVKFNWYVDGVEVHNAKTKPREEQYNSTYRVVSVLTVLHQDWLNGKEYKCKVSNKALPAPIEKTISKAKGQPREPQVYTLPPSRDELTKNQVSLWCLVKGFYPSDIAVEWESYGTEWSNYKTTPPVLDSDGSFFLYSKLTVSKEEWQQGFVFSCSVMHEALHNHYTQKSLSLSPGK
heavy 2: not shown
light: not shown

Key:
[1] = biological target: HER2 on HER2-overexpressing tumor cell lines (UniProt P04626 23-1255, limits assumed); experiment: cell-based or functional assay
[2] = biological target: human TfR on cells (human, UniProt P02786 1-760); experiment: cell-based or functional assay
[3] = biological target: T1, recombinant human TfR apical domain (human, UniProt P02786 198-378); experiment: SPR (Biacore), protein captured on anti-human Fab chip, human TfR apical domain injected, 1:1 Langmuir fit
T1 construct: also called recombinant TfR apical domain; transferrin receptor protein 1
Experimental: Affinities of the bispecific proteins were measured by SPR using a Biacore T200 or a Biacore 8K. Biacore™ Series S CM5 sensor chips were immobilized with monoclonal mouse anti-human IgG (Fc) antibody for HER2 affinity measurements or mouse anti-human Fab for TfR affinity measurements (human antibody or Fab capture kit from GE Healthcare). Serial 3-fold dilutions of analyte (recombinant HER2 extracellular domain or recombinant TfR apical domain) were injected at a flow rate of […]. Each sample was analyzed using a 3-minute association and a 10-minute dissociation for HER2 extracellular domain binding and a 40-second association and a 3-minute dissociation for human TfR apical domain binding. After each injection, the chip was regenerated using 3 M MgCl₂ or 50 mM glycine at pH 2.0. Binding response was corrected by subtracting the RU from a flow cell capturing an irrelevant IgG at similar density. A 1:1 Languir model of simultaneous fitting of kon and koff was used for kinetics analysis. […] The two constructs are described below.

T1 sequence (P02786 198-378 limits assumed): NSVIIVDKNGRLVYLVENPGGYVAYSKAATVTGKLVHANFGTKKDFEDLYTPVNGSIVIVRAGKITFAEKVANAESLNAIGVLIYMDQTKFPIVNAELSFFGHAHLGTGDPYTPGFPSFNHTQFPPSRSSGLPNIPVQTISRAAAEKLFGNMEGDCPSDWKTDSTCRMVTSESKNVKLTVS

Binder | maximum growth inhibition, OE19 cells, WST-1 assay [1] | maximum growth inhibition, OE19 cells, WST-1 assay [2] | Kd [3]
B1 | ~80% | ~80% | –
B2 | – | – | 500 nM
B3 | – | – | 480 nM
